Data: patent US20120269826A1

Biological target: CD3/TCR complex on mouse T cells (mouse) (UniProt P22646)
Assay: cell-based or functional assay

UniProt P22646, sequence (P22646 22-189, chain 1 of 4): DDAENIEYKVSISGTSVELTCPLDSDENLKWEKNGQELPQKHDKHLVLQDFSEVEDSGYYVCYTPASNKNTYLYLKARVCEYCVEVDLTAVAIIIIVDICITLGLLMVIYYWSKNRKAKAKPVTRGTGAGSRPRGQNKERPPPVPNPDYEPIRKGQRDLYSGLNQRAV
UniProt P22646, sequence (P11942 23-182, chain 2 of 4, further chain): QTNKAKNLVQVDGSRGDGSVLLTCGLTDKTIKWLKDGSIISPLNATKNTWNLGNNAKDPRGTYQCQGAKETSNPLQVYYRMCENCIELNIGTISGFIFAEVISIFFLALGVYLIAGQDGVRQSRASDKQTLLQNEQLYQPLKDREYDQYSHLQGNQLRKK
UniProt P22646, sequence (P04235 22-173, chain 3 of 4, further chain): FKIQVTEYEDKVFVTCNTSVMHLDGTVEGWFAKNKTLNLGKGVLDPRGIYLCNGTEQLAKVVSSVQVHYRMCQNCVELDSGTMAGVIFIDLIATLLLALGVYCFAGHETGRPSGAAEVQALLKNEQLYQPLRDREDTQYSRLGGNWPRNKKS
UniProt P22646, sequence (P24161 22-164, chain 4 of 4, further chain): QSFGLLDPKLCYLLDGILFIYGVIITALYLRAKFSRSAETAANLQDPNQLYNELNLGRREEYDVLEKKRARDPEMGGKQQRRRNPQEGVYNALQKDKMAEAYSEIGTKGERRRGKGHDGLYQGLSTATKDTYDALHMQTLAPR

- CD3/TCR-complex expression 24 hr after dose 4, 5 µg dose, Study A (% of baseline): 50
- CD3/TCR-complex expression 24 hr after dose 4, 25 µg dose, Study A (% of baseline): 12
- percentage of CD3/TCR-complex modulation after the fourth dose, 1 µg (4×/72 hr) dose regimen, BALB/c mice: 19.7%
- percentage of CD3/TCR-complex modulation after the fourth dose, 2 µg (4×/72 hr) dose regimen, BALB/c mice: 30.3%
Substance: anti-CD3 mAb F(ab′)2 (hamster anti-mouse CD3 mAb, clone 145-2C11)
